Source: the DeepSol protein solubility set

Assay: soluble on expression in E. coli; label from the status in PepcDB or PDB records
In the case of “MSLTKKELRKEQTNRFIESTIITTDLLLSSYLYDSTKMEEFLSFIANLDNKYSFINMYLVRTQFPGASIVKSYSSWKKENIQVRKNEKGISIFRPKVIEYVVYNNTKVTKDKWTNEIKELVKNNELEVYTYTKGFTLAKVFDISQTTLPKAQYPKQYFSYFIKEDNENINPNTKLLSLLCNFIAKHNIGITYATMGLSTSEQRFYDKNSHGIKHWIRLNDKNSITQNIYSLVKEYAHTLLGHDISAINNIENRYQAQLVAYAICKSFRLKGIELSSFDAFRSWVNTSTKEMRKKWINSVIFASKQFANDFNYFLDEIEINVDKANLRETASINELMGREGHHHHHH”, the “soluble on expression in E. coli” value is reported as “soluble”.
In the case of “MGSDKIHHHHHHGQNQNKIQEAMANYDYETAVELINKEPPTIPLLMQKAKALKGIGSNAEALRSIRQVIAEDSTNQQAHIEAAECCKAMAKYNDALDYYRKAISLNPKNKYARLQFINLLCNTKNYAEAFGESSMMSETDSSAVVLHLQAQSLEGMQQILPAIGCYEVIQDKYPDDYLAAAKLGNLNIVAGYPEYAIQATERYRERDSTNLIVNQQNALAYCHAEQYPTAIKRYEKLCQQGDSSTQTLYYLGVSYYADEYYYEAHACFSKLQKEMEENPNLLYYLGRCCAKTSWKKEGIEHLEKAIELTIPKDSTMIRLYKGLVDCCKLAQDTPKQIQALRELYKYDKTNHKLLYDIAWNYSYQLKDNKSAERYLQAFLKTRKANARKEEPVSEKGELVLGLENYYNAAENWLKDLQKEKFFKEGIPLESQKQ”, the “soluble on expression in E. coli” value is reported as “not soluble”.
In the case of “MGSSEVSIIPGLQKEEKAAVERRRLHVLKALKKLRIEADEAPVVAVLGSGGGLRAHIACLGVLSEMKEQGLLDAVTYLAGVSGSTWAISSLYTNDGDMEALEADLKHRFTRQEWDLAKSLQKTIQAARSENYSLTDFWAYMVISKQTRELPESHLSNMKKPVEEGTLPYPIFAAIDNDLQPSWQEARAPETWFEFTPHHAGFSALGAFVSITHFGSKFKKGRLVRTHPERDLTFLRGLWGSALGNTEVIREYIFDQLRNLTLKGLWRRAVANAKSIGHLIFARLLRLQESSQGEHPPPEDEGGEPEHTWLTEMLENWTRTSLEKQEQPHEDPERKGSLSNLMDFVKKTGICASKWEWGTTHNFLYKHGGIRDKIMSSRKHLHLVDAGLAINTPFPLVLPPTREVHLILSFDFSAGDPFETIRATTDYCRRHKIPFPQVEEAELDLWSKAPASCYILKGETGPVVMHFPLFNIDACGGDIEAWSDTYDTFKLADTYTLDVVVLLLALAKKNVRENKKKILRELMNVAGLYYPKDSARSCCLA”, the “soluble on expression in E. coli” value is reported as “soluble”.
In the case of “MTQDELYMKEAIKEAKKAEEKGEVPIGAVLVINGEIIARAHNLRETEQRSIAHAEMLVIDEACKALGTWRLEGATLYVTLEPCPMCAGAVVLSRVEKVVFGAFDPKGGCSGTLMNLLQEERFNHQAEVVSGVLEEECGGMLSAFFRELRKKKKAARKNLSEMGHHHHHHSH”, the “soluble on expression in E. coli” value is reported as “not soluble”.
With “MSTFFRQTAQAMIAKHINRFPLLKLDQVIDWQPIEQYLNRQKTRYLRDHRGRPAYPLLSMFKAVLLGQWHSLSDPELEHSLITRIDFNLFCRFDELSIPDYSTLCRYRNWLAQDDTLSELLELINCQLTEKGLKVEKASAAVIDATIIQTAGSEQRQAIEVDEEGQISGQTTPSKDSDARWIKKNGLYKLGYKQHTRTDAEGYIEKLHITPANAHECKHLSPLLEGLPEGTTVYADKGYDSAENRQHLEEHQLLDGIMSKACRNRPLSEVQTKRNRYLSKTRYSGLNLNQDKATKPQTVQIVRQGEATPYWFKFNPLYVVEQSFGTLHRKFRYARAAYFGLIKVSAQSHLKAMCLNLLKAANRLSAPAAA” the “soluble on expression in E. coli” value was “not soluble”.
With “MFSGHQLKTARLSKGITQSELGRLLHVNKMTISNWEKGKNIPNEKHLNALLHLFNVTSDYFDPNYRLLTPYNQLTISNKEKVIGYSERLLNHQIDKKSKDLIDKPSQLYAYRVYESLSAGTGYSYFGDGNFDVVFYDEQLEYDFASWVFGDSMEPTYLNGEVVLIKQNSFDYDGAIYAVEWDGQTYIKKVFREDEGLRLVSLNKKYSDKFAPYSEEPRIIGKIIANFRPLEI” the “soluble on expression in E. coli” value was “not soluble”.
